The values that follow come from patent publication US20260209316A1.

Assay [1] concerns the target thermolysin-cleaved SUDV GP (GP(S)THL) (Sudan virus (SUDV)) (UniProt Q7T9D9). Put plainly: BLI, Fab, pH 7.4.
The target is the same in assay [2]. The assay is described as follows: BLI, Fab, pH 5.3.
Assay [3] deals with full-length Sudan GP (GPFL) (Sudan virus (SUDV)) (UniProt Q7T9D9). Put plainly: BLI, Fab, pH 7.4. For orientation: In BLI a coated tip is dipped into the sample, and binding shifts an interference pattern.
For assay [4] the target is unchanged. The assay is described as follows: BLI, Fab, pH 5.3.

B1: Fab generated from 291S (Fab, V domains shown)
VH: QVQLQESGPGLVKPSQTLSLTCTVSGGSFSSGFYWSWIRQRPGKGLEWVGYTYYSGSTYYNPSLQSRVTISVDTSKNQFSLNLSSVTAADTAVYHCARADYGGLFDYWGQGILVTVSS
VL: QSVLTQPSSLSASPGASASLTCTLRSGINVGTYRIFWYQQKPGSPPQFLLRYNSDSDKQQGSGVPSRFSGSKDASANAGILLISGLQSEDEADYYCMIWHTSAWVFGGGTKLTVL
Regarding B1, in assay [1], the Kd (commonly the equilibrium constant for the complex coming apart) came out at 0.00019 µM; the koff (usually a measure of how fast the partners let go of each other) amounted to 5.1e-05 s⁻¹; the kon (in general, a measure of how fast the partners come together) was 264000 M⁻¹ s⁻¹. For the same molecule, in assay [2], the Kd was found to be 0.00067 µM, the koff is 0.000166 s⁻¹ and the kon was found to be 248000 M⁻¹ s⁻¹.

B2: Fab generated from 246S (Fab, V domains shown)
VH: QVQLVQSGAEVKKPGSSVKVSCKASGDTFSTYAITWVRQAPGQGLEWMGRIIPILGVTNYAQKFQGRVTFTADKSTITAYLELVNLRSEDTAVYYCTRDGYGGRDLLLNYYWGQGTLVTVSS
VL: EIVLTQSPGLLFWFPGERATLSCRASQSVSSSKLAWYQQKPGQAPRLLIYGASSRAPGIPDRFSGSGSGTDFTLTINRLEPEDFAVYFCQQYGSAQWTFGQGTKVDFK
Take B2: in assay [3], the Kd was 0.0232 µM, the koff is 0.000493 s⁻¹ and the kon came out at 21200 M⁻¹ s⁻¹. Moreover, in assay [4], the dissociation constant Kd is 0.0342 µM, the koff was found to be 0.000384 s⁻¹ and the association rate constant (kon) stood at 11200 M⁻¹ s⁻¹.
